Columns and labels:
[1] = target: T1, human FOLR1 protein, His Tag (ACRO FO1-H52H1) (human, UniProt P15328 25-233); test: ELISA, coated hFOLR1-His, supernatant 5x
T1 construct: Bought protein coated on ELISA plates; not shown: His tag

[2] = target: T1, human FOLR1 protein, His Tag (ACRO …); test: ELISA, coated hFOLR1-His, HEK293 supernatant
[3] = target: T1, human FOLR1 protein, His Tag (ACRO …); test: ELISA, coated hFOLR1-His, supernatant 1x
[4] = target: T2, human FOLR1 extracellular domain linked to His tag (human, UniProt P15328 25-233, limits assumed); test: BLI, global 1:1 fit (7.82 nM row)
T2 construct: extracellular domain; It may be the same product as m13; also called Hu-FRα; Hu-Ag; not shown: His tag

[5] = target: T3, human FOLR2 extracellular domain linked to His tag (human, UniProt P14207 17-230, limits assumed); test: BLI, global 1:1 fit (7.82 nM row)
T3 construct: extracellular domain; Antigen in solution in BLI; also called Hu-FRb; not shown: His tag

[6] = target: T1, human FOLR1 protein, His Tag (ACRO …); test: ELISA, coated hFOLR1-His, supernatant 25x
[7] = target: T2, human FOLR1 extracellular domain linked …; test: BLI, Ag 62.5 nM over Ab on anti-hIgG Fc tip
[8] = target: T3, human FOLR2 extracellular domain linked …; test: BLI, Ag 62.5 nM over Ab on anti-hIgG Fc tip
[9] = target: T2, human FOLR1 extracellular domain linked …; test: BLI, Ag 500 nM over Ab on anti-hIgG Fc tip
[10] = target: T3, human FOLR2 extracellular domain linked …; test: BLI, Ag 500 nM over Ab on anti-hIgG Fc tip
[11] = target: T4, cynomolgus FOLR1 protein, His Tag (ACRO F01-C52H8) (cynomolgus, UniProt A0A2K5U044 25-233); test: ELISA, coated cyno FOLR1-His, supernatant 25x
T4 construct: Bought protein coated on ELISA plates; also called Cynomolgus/Rhesus macaque FOLR1, Protein, His Tag; not shown: His tag

[12] = target: T5, mouse FOLR1 extracellular domain linked to His tag (mouse, UniProt P35846 25-232, limits assumed); test: BLI, global 1:1 fit (250 nM row); only the 500 nM response quantifiable
T5 construct: extracellular domain; Antigen in solution in BLI; also called Mouse-Ag; not shown: His tag

[13] = target: T2, human FOLR1 extracellular domain linked …; test: BLI, global 1:1 fit (500 nM row); Table 12 run (species FOLR α panel, Hu-Ag)
[14] = target: T1, human FOLR1 protein, His Tag (ACRO …); test: ratio of OD450 on hFOLR1 to OD450 on anti-human IgG Fc
[15] = target: T4, cynomolgus FOLR1 protein, His Tag (ACRO …); test: ELISA, coated cyno FOLR1-His, supernatant 1x
[16] = target: T5, mouse FOLR1 extracellular domain linked …; test: BLI, global 1:1 fit (500 nM row); only the 500 nM response quantifiable; only the 500 nM response quantifiable; R^2 0.6807
[17] = target: T4, cynomolgus FOLR1 protein, His Tag (ACRO …); test: ELISA, coated cyno FOLR1-His, supernatant 5x
[18] = target: T5, mouse FOLR1 extracellular domain linked …; test: BLI, global 1:1 fit (500 nM row); only the 500 nM response quantifiable
[19] = target: T2, human FOLR1 extracellular domain linked …; test: BLI, Ag 125 nM over Ab on anti-hIgG Fc tip
[20] = target: T3, human FOLR2 extracellular domain linked …; test: BLI, Ag 125 nM over Ab on anti-hIgG Fc tip
[21] = target: T6, rat FOLR1 extracellular domain linked to His tag (rat); test: BLI, Ag 7.82 nM; * = below range of quantification
T6 construct: extracellular domain; Antigen in solution in BLI; also called Rat-Ag

[22] = target: T2, human FOLR1 extracellular domain linked …; test: BLI, global 1:1 fit (500 nM row); Table 11 run (FOLR family panel, Hu-FRα)

T5 sequence (P35846 25-232 limits assumed): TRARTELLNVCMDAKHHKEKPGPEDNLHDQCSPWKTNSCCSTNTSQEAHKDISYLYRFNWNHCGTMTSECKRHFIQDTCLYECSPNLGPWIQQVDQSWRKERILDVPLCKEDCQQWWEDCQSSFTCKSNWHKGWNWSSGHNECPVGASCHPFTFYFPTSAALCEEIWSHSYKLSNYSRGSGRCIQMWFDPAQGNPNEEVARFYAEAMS
T3 sequence (P14207 17-230 limits assumed): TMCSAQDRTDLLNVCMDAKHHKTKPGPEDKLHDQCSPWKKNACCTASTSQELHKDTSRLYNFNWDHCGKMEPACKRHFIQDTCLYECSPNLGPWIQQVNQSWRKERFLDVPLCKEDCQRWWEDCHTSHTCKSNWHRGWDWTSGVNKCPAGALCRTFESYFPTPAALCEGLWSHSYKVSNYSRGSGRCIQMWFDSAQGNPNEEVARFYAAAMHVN
T2 sequence (P15328 25-233 limits assumed): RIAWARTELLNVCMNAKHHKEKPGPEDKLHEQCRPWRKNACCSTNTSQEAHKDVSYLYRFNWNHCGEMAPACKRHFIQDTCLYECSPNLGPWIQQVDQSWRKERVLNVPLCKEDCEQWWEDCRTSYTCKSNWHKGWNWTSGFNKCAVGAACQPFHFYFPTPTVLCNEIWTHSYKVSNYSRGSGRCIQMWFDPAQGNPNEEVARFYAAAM
T1 sequence (P15328 25-233 limits assumed): as above
T4 sequence (A0A2K5U044 entry or part of it): as the sequence (P15328 25-233 limits assumed) above, with I2T, W4R, R37K, A146P, H171Y counted along it

B1: F131 (antibody, V domains shown)
VH: EVQLLESGGGVVQPGRSLRLSCAASGFTFSSYGMHWVRQAPGKGLEWVAVISYDGSNKYYADSVKGRFTISRANSKNTLYLQMNSLRAEDTAVYYCARPRAYYGAYGSSFDYWGQGTQVTVSS
VL: EIVMTQSPSSVSASVGDRVAITCRASQGISSWLAWYQQKPGKAPKLLIYAASSLQSGVPSRFSGSGSGTDFTLTISSLQPEDFATYYCQQSYSTPLTFGGGTKVDIK
notes: also called clone F131; F131 mAb
Question: How did the OD450 [1] turn out when B1 was run?
Answer: 1.52 OD450

Question: And the OD450 [2]?
Answer: 2.35 OD450

Question: What about the OD450 [3] of the same binder?
Answer: 1.61 OD450

Question: What about the Kd [4] of the same binder?
Answer: 5.3 nM

Question: And the koff [4]?
Answer: 0.0012 s⁻¹

Question: What about the kon [4] of the same binder?
Answer: 226000 M⁻¹ s⁻¹

Question: What about the Kd [5] of the same binder?
Answer: 142 nM

Question: And the koff [5]?
Answer: 0.0784 s⁻¹

Question: And the kon [5]?
Answer: 552000 M⁻¹ s⁻¹

Question: What about the OD450 [6] of the same binder?
Answer: 1.38 OD450

Question: And the Response [7]?
Answer: 0.117

Question: And the Response [8]?
Answer: 0.0356

Question: And the Response [9]?
Answer: 0.192

Question: And the Response [10]?
Answer: 0.037

Question: And the OD450 [11]?
Answer: 1.09 OD450

Question: And the Kd [12]?
Answer: 2960 nM

Question: What about the koff [12] of the same binder?
Answer: 0.301 s⁻¹

Question: And the kon [12]?
Answer: 102000 M⁻¹ s⁻¹

Question: What about the Kd [13] of the same binder?
Answer: 1.53 nM

Question: What about the “Target binding/IgG level” value [14] of the same binder?
Answer: 1.02

Question: What about the OD450 [15] of the same binder?
Answer: 1.2 OD450

Question: What about the Kd [16] of the same binder?
Answer: 2960 nM

Question: And the OD450 [17]?
Answer: 1.27 OD450

Question: What about the koff [18] of the same binder?
Answer: 0.301 s⁻¹

Question: And the kon [18]?
Answer: 102000 M⁻¹ s⁻¹

Question: And the Response [19]?
Answer: 0.144

Question: What about the Response [20] of the same binder?
Answer: 0.0188

Question: And the Response [21]?
Answer: -0.00563

Question: What about the Kd [22] of the same binder?
Answer: 5.3 nM

B2: F131-LD038 (antibody, V domains shown)
VH: EVQLLESGGGVVQPGRSLRLSCAASGFTFSSYGMHWVRQAPGKGLEWVAVISYDGSNKYYADSVKGRFTISRANSKNTLYLQMNSLRAEDTAVYYCARPRAYYGAYGSSFDYWGQGTQVTVSS
VL: EIVMTQSPSSVSASVGDRVAITCRASQGISSWLAWYQQKPGKAPKLLIYAASSLQSGVPSRFSGSGSGTDFTLTISSLQPEDFATYYCQQSYSTPLTFGGGTKVDIK
modifications: drug-linker LD038 (PB038, maleimide-PEG unit-Val-Cit-PAB-exatecan) on cysteines freed by TCEP reduction; positions not given
notes: Antibody-drug conjugate of F131 (IgG1) with LD038; also called anti-huFOLR-1 conjugate F131-LD038; F131-038
Question: How did the Kd [4] turn out when B2 was run?
Answer: 4.79 nM

Question: What about the koff [4] of the same binder?
Answer: 0.00121 s⁻¹

Question: And the kon [4]?
Answer: 252000 M⁻¹ s⁻¹

Question: And the Kd [5]?
Answer: 84.4 nM

Question: What about the koff [5] of the same binder?
Answer: 0.0813 s⁻¹

Question: And the kon [5]?
Answer: 963000 M⁻¹ s⁻¹

Question: What about the Response [7] of the same binder?
Answer: 0.138

Question: What about the Response [8] of the same binder?
Answer: 0.0379

Question: What about the Response [9] of the same binder?
Answer: 0.222

Question: What about the Response [10] of the same binder?
Answer: 0.0427

Question: And the Kd [12]?
Answer: 2870 nM

Question: What about the koff [12] of the same binder?
Answer: 0.266 s⁻¹

Question: What about the kon [12] of the same binder?
Answer: 92600 M⁻¹ s⁻¹

Question: What about the Kd [18] of the same binder?
Answer: 2870 nM

Question: What about the koff [18] of the same binder?
Answer: 0.266 s⁻¹

Question: What about the kon [18] of the same binder?
Answer: 92600 M⁻¹ s⁻¹

Question: And the Response [19]?
Answer: 0.176

Question: And the Response [20]?
Answer: 0.0161

Question: And the Response [21]?
Answer: -0.00438

From patent publication US20240245796A1 (PROFOUNDBIO US, published 2024)
